Source: EP1616575B1 (ZymoGenetics, Inc., dated 2012)

Tests used:
[1] = target: T1, IL-20RA/IL-20RB heterodimeric receptor (human, UniProt Q9UHF4 30-553; Q6UXL0 30-311); assay: 125I-IL-20 binding to BHK cells stably transfected with IL-20RA and IL-20RB
T1 construct: Both subunits co-expressed on cells: transfected COS, BHK and BaF3 cells, and endogenous on HaCaT keratinocytes; also called IL-20 receptor; IL-20RB-IL-20RA heterodimer
T1 sequence 1: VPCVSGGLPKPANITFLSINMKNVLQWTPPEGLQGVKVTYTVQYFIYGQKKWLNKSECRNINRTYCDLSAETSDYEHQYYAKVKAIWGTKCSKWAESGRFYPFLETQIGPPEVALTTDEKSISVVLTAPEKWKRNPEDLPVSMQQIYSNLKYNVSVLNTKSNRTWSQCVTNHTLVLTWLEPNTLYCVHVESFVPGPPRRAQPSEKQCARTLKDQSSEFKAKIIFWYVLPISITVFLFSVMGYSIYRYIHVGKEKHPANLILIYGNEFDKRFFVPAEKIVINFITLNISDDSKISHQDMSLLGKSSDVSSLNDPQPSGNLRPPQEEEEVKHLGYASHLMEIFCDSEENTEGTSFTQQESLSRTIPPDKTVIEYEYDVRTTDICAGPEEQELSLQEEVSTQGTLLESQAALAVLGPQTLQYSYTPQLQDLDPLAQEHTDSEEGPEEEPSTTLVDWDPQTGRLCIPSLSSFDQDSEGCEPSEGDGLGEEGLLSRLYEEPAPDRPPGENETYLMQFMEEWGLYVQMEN
T1 sequence 2: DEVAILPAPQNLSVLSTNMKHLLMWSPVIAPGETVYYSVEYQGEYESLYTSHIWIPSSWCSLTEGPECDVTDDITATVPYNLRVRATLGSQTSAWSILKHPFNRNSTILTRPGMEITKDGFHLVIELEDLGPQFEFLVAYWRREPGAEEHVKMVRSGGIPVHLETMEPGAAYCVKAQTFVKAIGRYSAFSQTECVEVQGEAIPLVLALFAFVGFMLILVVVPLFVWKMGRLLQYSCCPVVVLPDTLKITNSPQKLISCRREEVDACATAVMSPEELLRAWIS

[2] = target: T2, IL-20RA (human, UniProt Q9UHF4 30-553); assay: radiolabeled IL-20 binding to BHK cells stably transfected with IL-20RA alone
T2 construct: Expressed alone on stably transfected BHK cells; also called Zcytor7; IL-20RA receptor subunit alone
T2 sequence: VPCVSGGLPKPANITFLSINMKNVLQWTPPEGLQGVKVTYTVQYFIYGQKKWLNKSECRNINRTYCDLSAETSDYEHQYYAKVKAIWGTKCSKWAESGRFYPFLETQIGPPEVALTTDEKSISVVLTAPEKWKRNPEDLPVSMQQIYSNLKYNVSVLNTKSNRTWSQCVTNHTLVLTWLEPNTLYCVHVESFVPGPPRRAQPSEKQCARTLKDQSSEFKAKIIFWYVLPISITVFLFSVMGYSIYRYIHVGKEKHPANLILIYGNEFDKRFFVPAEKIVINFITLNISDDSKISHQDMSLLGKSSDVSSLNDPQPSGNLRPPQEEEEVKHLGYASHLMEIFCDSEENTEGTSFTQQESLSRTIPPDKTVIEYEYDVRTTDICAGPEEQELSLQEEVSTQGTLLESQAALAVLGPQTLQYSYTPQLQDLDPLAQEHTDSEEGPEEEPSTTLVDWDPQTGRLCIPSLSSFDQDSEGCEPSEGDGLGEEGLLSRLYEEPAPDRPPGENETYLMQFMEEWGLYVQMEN

[3] = target: T3, IL-20RB (human, UniProt Q6UXL0 30-311); assay: radiolabeled IL-20 binding to BHK cells stably transfected with IL-20RB alone
T3 construct: Expressed alone on stably transfected BHK cells; also called IL-20RB receptor subunit alone
T3 sequence: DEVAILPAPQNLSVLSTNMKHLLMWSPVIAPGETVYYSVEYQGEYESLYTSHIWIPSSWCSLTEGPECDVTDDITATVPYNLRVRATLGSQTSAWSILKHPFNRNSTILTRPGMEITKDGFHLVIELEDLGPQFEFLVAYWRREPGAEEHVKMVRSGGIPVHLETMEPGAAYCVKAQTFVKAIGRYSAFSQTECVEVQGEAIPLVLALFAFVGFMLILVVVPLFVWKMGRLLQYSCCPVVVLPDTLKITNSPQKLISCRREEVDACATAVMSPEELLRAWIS

B1: IL-20 (ligand, UniProt Q9NYY1 25-176, looked up)
chain: LKTLNLGSCVIATNLQEIRNGFSEIRGSVQAKDGNIDIRILRRTESLQDTKPANRCCLLRHLLRLYLDRVFKNYQTPDHYTLRKISSLANSFLTIKKDLRLCHAHMTCHCGEEAMKKYSQILSHFEKLEPQAAVVKALGELDILLQWMEETE
notes: also called Zcyto10; biotin-labeled IL-20 protein
Kd [1]: ~1.5 nM | binding result [2]: no binding | binding result [3]: no binding
